Results taken from patent publication US20180362652A1 (Biogen, published 2018).

Legend:
[1] = target: T1, monomeric huBDCA2 ectodomain (human, UniProt Q8WTT0 45-213); experiment: Octet, mAb from conditioned medium on anti-human Fc tips, monomeric huBDCA2 in solution
T1 construct: Prepared by proteolytic cleavage of the purified muIgG2a Fc-huBDCA2 fusion protein (pEAG2423); also called human BDCA2 ectodomain; human BDCA2 ECD
T1 sequence: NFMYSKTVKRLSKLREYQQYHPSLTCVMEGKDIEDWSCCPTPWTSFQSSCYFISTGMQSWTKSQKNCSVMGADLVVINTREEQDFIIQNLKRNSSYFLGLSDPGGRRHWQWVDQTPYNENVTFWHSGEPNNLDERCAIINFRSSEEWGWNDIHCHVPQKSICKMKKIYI

[2] = target: T2, cynomolgus monkey BDCA2 (full-length, cell surface, E73 SNP form) (cynomolgus monkey, UniProt Q8WTT0 1-213 (human entry)); experiment: flow cytometry, whole blood pDCs of cynomolgus monkey donor 6, anti-human IgG PE secondary
T2 construct: also called cyno BDCA2; surface cynomolgus monkey BDCA2
T2 chain: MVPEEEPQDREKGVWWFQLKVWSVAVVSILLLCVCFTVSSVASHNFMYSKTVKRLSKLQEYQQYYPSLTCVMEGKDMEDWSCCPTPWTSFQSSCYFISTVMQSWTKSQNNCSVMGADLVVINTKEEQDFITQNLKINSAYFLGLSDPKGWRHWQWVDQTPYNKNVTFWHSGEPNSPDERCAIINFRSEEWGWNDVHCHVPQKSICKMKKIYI
Experimental: (§1) The MFI of PE was calculated in FlowJo software, and the percent of maximal binding, using the 40 μg/mL point as 100%, was computed. Each line represents one individual cynomolgus monkey, for a total of twelve cynomolgus monkeys, and graphed using GraphPad Prism software (four-parameter nonlinear regression curve fit of log-transformed data). Staining was repeated once a week for three weeks total.
(§2) The maximal values were taken from the values at the plateau in each assay (FIGS. 24 and 25).
(§3) MFI of PE was calculated with FlowJo software, and EC50 curves were generated in GraphPad Prism software.

[3] = target: T3, rat Clec4b2 (full-length, cell surface) (rat); experiment: dilution titration direct FACS on transiently transfected 293E cells
T3 construct: 293E cells co-transfected with rat FcεRIγ; Genbank NM_001005896; also called surface rat Clec4b2; closest rat homolog of human BDCA2
T3 chain: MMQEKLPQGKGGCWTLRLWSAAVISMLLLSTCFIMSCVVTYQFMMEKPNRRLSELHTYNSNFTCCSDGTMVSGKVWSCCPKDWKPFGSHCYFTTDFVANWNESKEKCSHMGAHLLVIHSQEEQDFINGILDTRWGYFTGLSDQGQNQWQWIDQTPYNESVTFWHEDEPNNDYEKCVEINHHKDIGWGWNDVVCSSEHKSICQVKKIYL

[4] = target: T2, cynomolgus monkey BDCA2 (full-length, …); experiment: flow cytometry, whole blood pDCs of cynomolgus monkey donor 9, anti-human IgG PE secondary
Experimental: as §1, §2, §3

B1: BIIB059 (antibody, human IgG1, kappa)
heavy: not shown
light: DIQLTQSPSSLSASVGDRVTITCKASQSVDYDGDSYMNWYQQKPGKAPKLLIYAASTLESGVPSRFSGSGSGTDFTLTISSLQPEDFATYYCQQANEDPRTFGQGTKVEIKRTVAAPSVFIFPPSDEQLKSGTASVVCLLNNFYPREAKVQWKVDNALQSGNSQESVTEQDSKDSTYSLSSTLTLSKADYEKHKVYACEVTHQGLSSPVTKSFNRGEC
notes: Humanized IgG1 kappa, mature chains; in some assays labelled with Alexa647; also called hu24F4 H4/L1 C95A; H4-L1-C95A (YL751/YL746)
For B1, the Kd [1] was 0.261 nM, the EC50 [2] was 1.3 mg/L and the binding result [3] was “no binding”. It also gave an EC50 [4] of 1.4 mg/L.
